Consider 2 proteins from patent US7186539.

The target of data set [1] is T1, Synthetic peptide substrate GLTNIKTEEISEISY-EVEFRWKK
T1 chain: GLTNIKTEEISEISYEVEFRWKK

Data set [2] addresses T2, Synthetic peptide substrate SEISY-EVEFRWKK
T2 chain: SEISYEVEFRWKK

In data set [3] the target is T3, Peptide substrate EIDL-MVLDWHDR
T3 chain: EIDLMVLDWHDR

B1: pQE70-BACE (M)R36GSFVE...QTDES432RS(His)6 (protein)
chain: MRGSFVEMVDNLRGKSGQGYYVEMTVGSPPQTLNILVDTGSSNFAVGAAPHPFLHRYYQRQLSSTYRDLRKGVYVPYTQGKWEGELGTDLVSIPHGPNVTVRANIAAITESDKFFINGSNWEGILGLAYAEIARPDDSLEPFFDSLVKQTHVPNLFSLQLCGAGFPLNQSEVLASVGGSMIIGGIDHSLYTGSLWYTPIRREWYYEVIIVRVEINGQDLKMDCKEYNYDKSIVDSGTTNLRLPKKVFEAAVKSIKAASSTEKFPDGFWLGEQLVCWQAGTTPWNIFPVISLYLMGEVTNQSFRITILPQQYLRPVEDVATSQDDCYKFAISQSSTGTVMGAVIMEGFYVVFDRARKRIGFAVSACHVHDEFRTAAVEGPFVTLDMEDCGYNIPQTDESRSHHHHHH
In the case of B1, in data set [1], the Km came out at 5.4 µM, the Vmax (µmol min^-1mg^-1) worked out at 0.4, the catalytic constant (kcat) was found to be 0.317 s⁻¹ and the kcat/Km stood at 0.0581 sec^-1µM^-1. In data set [2], the Km came out at 55.5 µM, the Vmax (µmol min^-1mg^-1) was 0.345, the kcat stood at 0.273 s⁻¹ and the kcat/Km came to 0.0049 sec^-1µM^-1.

B2: CHO-BACE, recombinant human BACE construct Asp2-2LΔTM-His6 expressed in CHO cells (protein)
chain: TQHGIRLPLRSGLGGAPLGLRLPRETDEEPEEPGRRGSFVEMVDNLRGKSGQGYYVEMTVGSPPQTLNILVDTGSSNFAVGAAPHPFLHRYYQRQLSSTYRDLRKGVYVPYTQGKWEGELGTDLVSIPHGPNVTVRANIAAITESDKFFINGSNWEGILGLAYAEIARPDDSLEPFFDSLVKQTHVPNLFSLQLCGAGFPLNQSEVLASVGGSMIIGGIDHSLYTGSLWYTPIRREWYYEVIIVRVEINGQDLKMDCKEYNYDKSIVDSGTTNLRLPKKVFEAAVKSIKAASSTEKFPDGFWLGEQLVCWQAGTTPWNIFPVISLYLMGEVTNQSFRITILPQQYLRPVEDVATSQDDCYKFAISQSSTGTVMGAVIMEGFYVVFDRARKRIGFAVSACHVHDEFRTAAVEGPFVTLDMEDCGYNIPQTDESHHHHHH
For the protein B2, in data set [1], the Km came to 4.9 µM, the Vmax (µmol min^-1mg^-1) is 0.435, the kcat amounted to 0.345 s⁻¹ and the kcat/Km came to 0.0704 sec^-1µM^-1. Further, in data set [3], the Km turned out to be 12 µM, the Vmax (µmol min^-1mg^-1) is 0.0196, the kcat came out at 0.0155 s⁻¹ and the kcat/Km amounted to 0.0013 sec^-1µM^-1. Further, in data set [2], the Michaelis-Menten constant (Km) was determined as 52 µM, the Vmax (µmol min^-1mg^-1) is 0.294, the kcat worked out at 0.233 s⁻¹ and the kcat/Km came out at 0.0045 sec^-1µM^-1.

A word on the Km: it is the substrate concentration at which the rate is half of its maximum. For orientation: kcat means the maximal rate divided by the concentration of active sites.
